Assay results: patent publication US20200040057A1 (IMMATICS BIOTECHNOLOGIES, published 2020)

What was measured:
[1] = molecular target: HLA-B*07 (human); test: UV peptide exchange ELISA; ++++ = yield >75%
[2] = molecular target: HLA-B*07 (human); test: UV peptide exchange ELISA; +++ = yield >50

| Binder | peptide exchange yield [1] [%] | peptide exchange yield [2] [%] |
| --- | --- | --- |
| KPKVESQAL | > 75 |  |
| SPSSVFTSK |  | 50 to 75 |
| KPRTIYSSL | > 75 |  |
| APTPRPKVL | > 75 |  |
| APRGPAQGEAA | > 75 |  |
| MPFRNIRSIL |  | 50 to 75 |
| RPLPNSVIHV |  | 50 to 75 |
| RPPPSRRAVL |  | 50 to 75 |
| NPERHKPSF |  | 50 to 75 |
| SPRIPFSTF | > 75 |  |
| TPRIGPKVSL |  | 50 to 75 |
| FPYSGDKILV |  | 50 to 75 |
| APLHGGGSL |  | 50 to 75 |
| VWEPQGSSRSL |  | 50 to 75 |
| RLAHVRARL |  | 50 to 75 |
| RPSQLAPATL |  | 50 to 75 |
| VPVSHPVL | > 75 |  |
| MPAGGGPRSL | > 75 |  |
| HPNKIKASL |  | 50 to 75 |
| FPRTVKHIDAAL | > 75 |  |
| MPRLLRLSL |  | 50 to 75 |
| TVRPKNAAL |  | 50 to 75 |
| VPRRPARAL |  | 50 to 75 |
| LPVSPARAL |  | 50 to 75 |
| RNRQVATAL |  | 50 to 75 |

| Binder | peptide exchange yield [1] [%] | peptide exchange yield [2] [%] |
| --- | --- | --- |
| SSASFSSELFRH |  | 50 to 75 |
| SAQSLHPVL |  | 50 to 75 |
| VPGSDPARYEFL |  | 50 to 75 |
| FPRLVGPDFF | > 75 |  |
| IPWFIKTAF | > 75 |  |
| LPVSSPVTL | > 75 |  |
| VPVSRPVL | > 75 |  |
| RPRQTGALM | > 75 |  |
| VAAAARLTL |  | 50 to 75 |
| APRGSPPI |  | 50 to 75 |
| SVAIAHGVF | > 75 |  |
| VPAQRLGLL | > 75 |  |
| RPYSIYPHGVTF | > 75 |  |
| LPSPAHAFRAL |  | 50 to 75 |
| SPVFYVQTL | > 75 |  |
| QPVLPSPAC | > 75 |  |
| GPKKFIVKL |  | 50 to 75 |
| APLKMLAL | > 75 |  |
| YPMIPPAQL |  | 50 to 75 |
| FPNVYSTLVL | > 75 |  |
| LPRALMRST |  | 50 to 75 |
| VPYYPRANL |  | 50 to 75 |
| YPSPLNKHSF |  | 50 to 75 |
| SPSREASAL |  | 50 to 75 |
| LPMTVISVL | > 75 |  |

| Binder | peptide exchange yield [1] [%] | peptide exchange yield [2] [%] |
| --- | --- | --- |
| KTKSLAQQL |  | 50 to 75 |
| VPAQRLGLLL |  | 50 to 75 |
| GPFQRAAL |  | 50 to 75 |
| RPVQGIPTY |  | 50 to 75 |
| SPSYTQASL | > 75 |  |
| APMAPGRSPL | > 75 |  |
| LPALLRSGLTL | > 75 |  |
| GSRPVTGSV |  | 50 to 75 |
| IPIRVDQNGAF |  | 50 to 75 |
| VPSDITTAF |  | 50 to 75 |
| RPSGTAGAAL |  | 50 to 75 |
| RPSFPNLTSF | > 75 |  |
| WPNHIMLVL | > 75 |  |
| NPIFGRKEL |  | 50 to 75 |
| RPRLRDLPAL |  | 50 to 75 |
| SPSQTVQRAV | > 75 |  |
| MPKTNLSKM |  | 50 to 75 |
| RPQPQPRPAL | > 75 |  |
| HVAQPAVVL |  | 50 to 75 |
| QPRLVPGETL | > 75 |  |
| APFHIDRLF |  | 50 to 75 |
| RPLPVSPARAL |  | 50 to 75 |
| LVILQHQAM |  | 50 to 75 |
| LPLGGHKSL |  | 50 to 75 |
